Conditions: Escherichia coli (strain K12), pH 7.8, Urea, NMR, Potassium phosphate 58 mM, reversible: yes, whole UniProt chain shown

B1: Tryptophan synthase alpha chain wild type, P0A877 (protein)
chain: MERYESLFAQLKERKEGAFVPFVTLGDPGIEQSLKIIDTLIEAGADALELGIPFSDPLADGPTIQNATLRAFAAGVTPAQCFEMLALIRQKHPTIPIGLLMYANLVFNKGIDEFYAQCEKVGVDSVLVADVPVEESAPFRQAALRHNVAPIFICPPNADDDLLRQIASYGRGYTYLLSRAGVTGAENRAALPLNHLVAKLKEYNAAPPLQGFGISAPDQVKAAIDAGAAGAISGSAIVKIIEQHINEPEKMLAALKVFVQPMKAATRS
In the case of B1, the “denaturant midpoint (higher = more stable)” value (“denaturant midpoint” for short) (5 °C) is reported as 4.8 M, the unfolding free energy (5 °C) is reported as 4.8 kcal/mol and the “denaturant midpoint” value (10 °C) is reported as 4.6 M. The unfolding free energy (10 °C) was 5.5 kcal/mol, the “denaturant midpoint” value (15 °C) was 4.7 M and the unfolding free energy (15 °C) was 6.1 kcal/mol. The “denaturant midpoint” value (20 °C) was 5.4 M, the unfolding free energy (20 °C) was 7.5 kcal/mol and the “denaturant midpoint” value (25 °C) was 5.9 M. For the same protein, the unfolding free energy (25 °C) was 8.2 kcal/mol.
